# Tests used:
# [1] = target: HLA-B*53:01; experiment: IEDB peptide-MHC binding, purified MHC/competitive/radioactivity; filed as Kd, often an IC50 or EC50 that approximates it; ≥ and ≤ were set here for values at or beyond the usual limits of such assays; details: source organism: Dengue virus 3 Martinique/1243/1999
# [2] = target: HLA-B*51:01; experiment: IEDB peptide-MHC binding, purified MHC/direct/fluorescence; filed as Kd, often an IC50 or EC50 that approximates it; ≥ and ≤ were set here for values at or beyond the usual limits of such assays
# [3] = target: HLA-B*15:01; experiment: as above; details: source organism: Mycobacterium tuberculosis
# [4] = target: HLA-B*27:05; experiment: as above
# [5] = target: HLA-A*01:01; experiment: as above
# [6] = target: HLA-B*44:02; experiment: as above
# [7] = target: HLA-B*58:01; experiment: as above
# [8] = target: HLA-A*11:01; experiment: as above; details: source organism: Mycobacterium tuberculosis
# [9] = target: HLA-A*31:01; experiment: as above
# [10] = target: HLA-B*39:01; experiment: as above
# [11] = target: HLA-B*46:01; experiment: as above; details: source organism: Mycobacterium tuberculosis
# [12] = target: HLA-B*07:02; experiment: as above
# [13] = target: HLA-B*57:01; experiment: as above
# [14] = target: HLA-A*03:01; experiment: as above
# [15] = target: HLA-A*26:01; experiment: as above; details: source organism: Mycobacterium tuberculosis str. Haarlem
# [16] = target: HLA-B*48:01; experiment: as above; details: source organism: Mycobacterium tuberculosis
# [17] = target: HLA-A*69:01; experiment: as above; details: source organism: Mycobacterium tuberculosis
# [18] = target: HLA-B*15:17; experiment: as above; details: source organism: Mycobacterium tuberculosis
# [19] = target: HLA-B*18:01; experiment: as above; details: source organism: Mycobacterium tuberculosis
# [20] = target: HLA-B*15:09; experiment: as above; details: source organism: Mycobacterium tuberculosis str. Haarlem
# [21] = target: HLA-B*40:01; experiment: as above; details: source organism: Mycobacterium tuberculosis
# [22] = target: HLA-A*02:01; experiment: as above; details: source organism: Mycobacterium tuberculosis
# [23] = target: HLA-B*83:01; experiment: IEDB peptide-MHC binding, purified MHC/competitive/fluorescence; filed as Kd, often an IC50 or EC50 that approximates it; ≥ and ≤ were set here for values at or beyond the usual limits of such assays; details: source organism: Mycobacterium tuberculosis variant bovis BCG str. Pasteur 1173P2
# [24] = target: HLA-B*15:01; experiment: as above; details: source organism: Mycobacterium tuberculosis variant bovis BCG str. Pasteur 1173P2
# [25] = target: HLA-A*01:01; experiment: as above; details: source organism: Mycobacterium tuberculosis variant bovis BCG str. Pasteur 1173P2
# [26] = target: HLA-B*45:06; experiment: as above; details: source organism: Mycobacterium tuberculosis variant bovis BCG str. Pasteur 1173P2
# [27] = target: HLA-B*39:01; experiment: as above; details: source organism: Mycobacterium tuberculosis variant bovis BCG str. Pasteur 1173P2
# [28] = target: HLA-B*15:42; experiment: as above; details: source organism: Mycobacterium tuberculosis variant bovis BCG str. Pasteur 1173P2
# [29] = target: HLA-A*01:01; experiment: IEDB peptide-MHC binding, purified MHC/competitive/fluorescence; ≥ and ≤ were set here for values at or beyond the usual limits of such assays
# [30] = target: HLA-A*32:01; experiment: IEDB peptide-MHC binding, purified MHC/competitive/radioactivity; filed as Kd, often an IC50 or EC50 that approximates it; ≥ and ≤ were set here for values at or beyond the usual limits of such assays; details: source organism: Vaccinia virus WR
# [31] = target: HLA-B*15:01; experiment: IEDB peptide-MHC binding, purified MHC/competitive/fluorescence; ≥ and ≤ were set here for values at or beyond the usual limits of such assays
# [32] = target: HLA-A*24:02; experiment: as above
# [33] = target: HLA-A*02:01; experiment: as above
# [34] = source organism: Mycobacterium tuberculosis
# [35] = source organism: Mammarenavirus lassaense
# [36] = source organism: Vaccinia virus WR
# [37] = source organism: Zaire ebolavirus
sequence,measurement,setting,value
HPGFTILAL,Kd,[1],0.0003 µM
same,Kd,[2]; source organism: dengue virus type 3,≥ 20 µM
FHVNPAFVL,Kd,[3],≥ 20 µM
same,Kd,[4]; [34],≥ 20 µM
same,Kd,[5]; [34],≥ 20 µM
same,Kd,[6]; [34],≥ 20 µM
same,Kd,[7]; [34],≥ 20 µM
same,Kd,[8],≥ 20 µM
same,Kd,[9]; [34],≥ 20 µM
same,Kd,[10]; [34],0.014 µM
same,Kd,[11],≥ 20 µM
same,Kd,[12]; [34],≥ 20 µM
same,Kd,[13]; [34],≥ 20 µM
same,Kd,[14]; [34],≥ 20 µM
NQFGTMPSL,Kd,[4]; [35],≥ 20 µM
same,Kd,[5]; [35],≥ 20 µM
same,Kd,[6]; [35],≥ 20 µM
same,Kd,[7]; [35],≥ 20 µM
same,Kd,[9]; [35],≥ 20 µM
same,Kd,[10]; [35],0.0011 µM
same,Kd,[12]; [35],≥ 20 µM
same,Kd,[13]; [35],≥ 20 µM
same,Kd,[14]; [35],≥ 20 µM
RPRCAYLPF,Kd,[4]; [34],≥ 20 µM
same,Kd,[15],2.6 µM
same,Kd,[16],≥ 20 µM
same,Kd,[17],≥ 20 µM
same,Kd,[7]; [34],≥ 20 µM
same,Kd,[18],0.197 µM
same,Kd,[2]; [34],≥ 20 µM
same,Kd,[19],5.59 µM
same,Kd,[8],≥ 20 µM
same,Kd,[9]; [34],≥ 20 µM
same,Kd,[11],5.59 µM
same,Kd,[13]; [34],≥ 20 µM
same,Kd,[20],≥ 20 µM
same,Kd,[14]; [34],≥ 20 µM
same,Kd,[21],≥ 20 µM
same,Kd,[22],≥ 20 µM
same,Kd,[23],0.0317 µM
same,Kd,[24],2.17 µM
same,Kd,[25],≥ 20 µM
same,Kd,[26],≥ 5 µM
same,Kd,[27],≥ 20 µM
same,Kd,[28],≥ 5 µM
SPGRKNGSF,Kd,[2]; source organism: Yellow fever virus 1899/81,≥ 20 µM
HKDGAFFLY,IC50,[29]; source organism: Sudan ebolavirus,6.35 µM
KMDNGTLEF,Kd,[30],0.000923 µM
same,IC50,[31]; [36],24.4 µM
same,IC50,[29]; [36],15 µM
same,IC50,[32]; [36],1.06 µM
same,IC50,[33]; [36],6.36 µM
TLDGQQFYW,IC50,[29]; [37],35.3 µM
same,IC50,[32]; [37],0.182 µM
same,IC50,[33]; [37],2.22 µM
MRMGDLHLL,Kd,[10]; source organism: Influenza A virus (A/swine/Italy/1850/1977(H3N2)),0.0396 µM
FSTSDGKEY,IC50,[31]; [37],11.6 µM
same,IC50,[29]; [37],14.3 µM

# — the Immune Epitope Database (IEDB)
